# Assay results reported in patent US20200399311A1.
# Non-standard residues stand in square brackets, D forms with d. No end group written: not given here. Hyp = O=C(O)[C@@H]1C[C@@H](O)CN1; NMeI = CC[C@H](C)[C@H](NC)C(=O)O; hArg = N=C(N)NCCCC[C@H](N)C(=O)O; Cit = NC(=O)NCCC[C@H](N)C(=O)O; Nle = CCCC[C@H](N)C(=O)O; APPA = not defined here; Aib = CC(C)(N)C(=O)O
# What was measured:
# [1] = molecular target: Purified recombinant human PCSK9 (His-tagged, BPS Biosciences) (human) (UniProt Q8NBP7); experiment: SPR (Biacore T200), PCSK9 amine-coupled on chip, peptide at 50 µM
# [2] = molecular target: Purified recombinant human PCSK9 (His-tagged, BPS Biosciences) (human) (UniProt Q8NBP7); experiment: SPR (Biacore T200), PCSK9 amine-coupled on chip, peptide at 100 µM
# Sequence of Purified recombinant human PCSK9 (His-tagged, BPS Biosciences) (human) (Q8NBP7 31-692 limits assumed): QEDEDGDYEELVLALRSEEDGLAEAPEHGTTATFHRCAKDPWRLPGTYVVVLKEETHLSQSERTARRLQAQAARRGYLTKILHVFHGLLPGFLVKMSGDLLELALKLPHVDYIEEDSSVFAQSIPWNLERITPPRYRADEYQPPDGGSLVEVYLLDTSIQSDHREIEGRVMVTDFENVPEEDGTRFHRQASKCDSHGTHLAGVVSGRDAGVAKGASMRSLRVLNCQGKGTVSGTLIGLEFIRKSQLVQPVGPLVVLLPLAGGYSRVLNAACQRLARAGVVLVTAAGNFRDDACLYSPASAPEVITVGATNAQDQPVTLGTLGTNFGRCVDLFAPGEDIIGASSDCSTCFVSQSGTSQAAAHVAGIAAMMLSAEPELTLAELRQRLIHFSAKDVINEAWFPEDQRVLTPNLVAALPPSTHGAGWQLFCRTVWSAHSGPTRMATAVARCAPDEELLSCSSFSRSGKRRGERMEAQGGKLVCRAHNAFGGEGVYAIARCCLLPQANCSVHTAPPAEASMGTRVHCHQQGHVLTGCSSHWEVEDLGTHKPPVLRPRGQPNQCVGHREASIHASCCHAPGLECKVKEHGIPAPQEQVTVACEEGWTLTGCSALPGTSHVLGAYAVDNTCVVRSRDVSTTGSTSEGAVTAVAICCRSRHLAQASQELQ
Binder,Binding - Response Unit (RU) [1],Binding - Response Unit (RU) [2]
SIPWNLER[Aib]TPC [Short chain peptide Seq. ID. No. 5 (SIPWNLER-Aib-TPC)],2.3 RU,7.1 RU
SIPWNLER[Nle]TPC [Short chain peptide Seq. ID. No. 4 (SIPWNLER-Nle-TPC)],13.1 RU,30 RU
SIPWNLE[hArg]ITPC [Short chain peptide Seq. ID. No. 6 (SIPWNLE-Har-ITPC)],6.55 RU,17.5 RU
SIPWN[Nle]ERITPC [Short chain peptide Seq. ID. No. 7 (SIPWN-Nle-ERITPC)],6.65 RU,16 RU
SI[Hyp]WNLERITPC [Short chain peptide Seq. ID. No. 8 (SI-Hyp-…)],5.7 RU,13.2 RU

# Now from value to binder:
Binding - Response Unit (RU) [1],Binding - Response Unit (RU) [2],Binder
10.2 RU,17.9 RU,SIP[APPA]NLERITPC (reading uncertain) [Short chain peptide Seq. ID. No. 18 (SIP-APPA-NLERITPC)]
11.4 RU,29.9 RU,S[NMeI]IPWNLERITPC [Short chain peptide Seq. ID. No. 15 (S-(N-Me-Ile)-…)]
9.75 RU,37.4 RU,SIPWNLERI[Aib]PC [Short chain peptide Seq. ID. No. 13 (…-Aib-PC)]
35.1 RU,85.9 RU,SIP[Bip(OMe)]NLERITPC [Short chain peptide Seq. ID. No. 19 (SIP-Bip(OMe)-NLERITPC)]
3 RU,7.5 RU,SIPWN[Aib]ERITPC [Short chain peptide Seq. ID. No. 10 (SIPWN-Aib-ERITPC)]
7.1 RU,15 RU,[Aib]IPWNLERITPC [Short chain peptide Seq. ID. No. 14 (Aib-…)]
3.1 RU,6.7 RU,SIPWNLE[Cit]ITPC [Short chain peptide Seq. ID. No. 12 (SIPWNLE-Cit-ITPC)]
